Here are results for three substances from patent US5994310A, “Peptide ligands for affinity purification of human Factor VIII” (Bayer Corporation, priority 1998, dated 1999).

For experiment [1], the target named is T1, human Factor VIII (Homo sapiens, UniProt P00451).
T1 construct: (the applicant)
As to the kind of experiment: Secondary chromatography binding assay (ELISA quantitation of column fractions). The following applies: rhFVIII load 10 μg on peptide-resin column; for Elute Total μg: FVIII by ELISA in elution (Buffer C) fraction; for Flow-Through Total μg: FVIII by ELISA in flow-through fraction; for Salt Wash Total μg: FVIII by ELISA in salt wash (Buffer B) fraction. As to the method: The secondary chromatography binding assays were performed upon a Michrom Bioresources HPLC (Auburn, Calif.). This binary system has the added advantage of a second injection loop which was outfitted with a 5 ml loop. This allowed addition of a third solvent during the HPLC run. Buffer A was 20 mM Imidazole, pH=7.0, 10 mM CaCl2, 300 mM NaCl, 0.01% Tween 80. Buffer B is the same as buffer A but with 1M NaCl and 1M CaCl2. Elution buffer (Buffer C) is the same as buffer A but with 40% ethylene glycol monomer and 250 mM CaCl2. Absorbance was monitored at 280 nm.
Confirmatory FVIII binding assays were performed in a column chromatographic format on the HPLC described above. Batch synthesized peptide-resin (substitution at 100 μmoles/g) was loaded and washed as described in Buettner, J., 1996, supra. The HPLC method injected the sample onto the column at 80 cm/hr linear velocity, allowed for flow-through of unbound protein, then stepped to 200 cm/hr for the wash with Buffer B (as described above), and then the bound protein eluted with Buffer C (as described above). FIGS. 1, 2 and 3 show the results from contacting a known amount of human Factor VIII to each of the preferred peptide-resins (sequence ID 1, 2 and 3, respectively).
Recombinant FVIII was applied to each column as described above. […] ELISA quantitation utilized a polyclonal antisera as capture antibody adsorbed onto the plate well, application of each fraction allowed the Factor VIII to adhere to the capture antibody. The making and using of polyclonal and monoclonal antibodies is well-know, and within the skill of one of ordinary skill in the art. See generally Antibodies, A Lab Manual, Harlow and Lane, eds., 1988, Cold Spring Harbor. Then a panel of 3 monoclonal antibodies were used to identify the Factor VIII and detection of these antibodies with a secondary-antibody enzyme conjugate allowed accurate quantitation of the Factor VIII. The flow-through fractions from each injection show greater than 96% target protein depletion by these peptide ligands. […] The binding avidity was weak enough to permit recovery of target protein during the elution phase of the chromatography.

The target of experiment [2] is T1, human Factor VIII. Put plainly: Preparative hrFVIII purification by peptide resins, fractions assayed for Factor VIII activity (Coatest VIII:C/4). The following applies: load KG2DEAE 136 IU; for Elute Total IU / Flow-Through Total IU / Salt Wash Total IU: Coatest. The method, then:
Preparative batch synthesis of the preferred sequences was performed using 10 g TSK resin (Toyopearl AF-Amino-650M, TosoHaas, Inc., Montgomeryville, Pa.) as described in Buettner, J., 1996, supra. […] Three injections of an in-process sample of human Factor VIII were contacted with each resin and fractions of flow-through, salt wash and elution were tested for biological activity, protein profile by SDS-PAGE, and target protein identification by Western blot analyses, as described in Buettner, J., 1996, supra. Biological activity was defined as the ability of the column fraction to reconstitute Factor VIII-depleted plasma to thereby activate Factor X to Factor Xa, with quantitation of enzymatic activity by spectrophotometric measurement of cleaved substrate. (Coatest VIII:C/4, Chromogenix, Molndal, Sweden).
FIGS. 4, 5 and 6 show the purification chromatograms for binding of the rhFVIII to SEQ IDs 1, 2 and 3, respectively. In each figure, the bottom HPLC trace is the buffer blank injection; the three other HPLC traces are subsequent injections of the KG2DEAE sample. For each chromatogram, flow-through occurs from t=0-22 minutes; salt wash at t=26-34 minutes; elution at t=44-54 minutes. Each fraction (flow-through, salt wash and elution) was collected and assayed for Factor VIII activity by the above described Coatest assay.

Where no end group is shown, it is not given here.

T1 sequence (P00451 20-2351): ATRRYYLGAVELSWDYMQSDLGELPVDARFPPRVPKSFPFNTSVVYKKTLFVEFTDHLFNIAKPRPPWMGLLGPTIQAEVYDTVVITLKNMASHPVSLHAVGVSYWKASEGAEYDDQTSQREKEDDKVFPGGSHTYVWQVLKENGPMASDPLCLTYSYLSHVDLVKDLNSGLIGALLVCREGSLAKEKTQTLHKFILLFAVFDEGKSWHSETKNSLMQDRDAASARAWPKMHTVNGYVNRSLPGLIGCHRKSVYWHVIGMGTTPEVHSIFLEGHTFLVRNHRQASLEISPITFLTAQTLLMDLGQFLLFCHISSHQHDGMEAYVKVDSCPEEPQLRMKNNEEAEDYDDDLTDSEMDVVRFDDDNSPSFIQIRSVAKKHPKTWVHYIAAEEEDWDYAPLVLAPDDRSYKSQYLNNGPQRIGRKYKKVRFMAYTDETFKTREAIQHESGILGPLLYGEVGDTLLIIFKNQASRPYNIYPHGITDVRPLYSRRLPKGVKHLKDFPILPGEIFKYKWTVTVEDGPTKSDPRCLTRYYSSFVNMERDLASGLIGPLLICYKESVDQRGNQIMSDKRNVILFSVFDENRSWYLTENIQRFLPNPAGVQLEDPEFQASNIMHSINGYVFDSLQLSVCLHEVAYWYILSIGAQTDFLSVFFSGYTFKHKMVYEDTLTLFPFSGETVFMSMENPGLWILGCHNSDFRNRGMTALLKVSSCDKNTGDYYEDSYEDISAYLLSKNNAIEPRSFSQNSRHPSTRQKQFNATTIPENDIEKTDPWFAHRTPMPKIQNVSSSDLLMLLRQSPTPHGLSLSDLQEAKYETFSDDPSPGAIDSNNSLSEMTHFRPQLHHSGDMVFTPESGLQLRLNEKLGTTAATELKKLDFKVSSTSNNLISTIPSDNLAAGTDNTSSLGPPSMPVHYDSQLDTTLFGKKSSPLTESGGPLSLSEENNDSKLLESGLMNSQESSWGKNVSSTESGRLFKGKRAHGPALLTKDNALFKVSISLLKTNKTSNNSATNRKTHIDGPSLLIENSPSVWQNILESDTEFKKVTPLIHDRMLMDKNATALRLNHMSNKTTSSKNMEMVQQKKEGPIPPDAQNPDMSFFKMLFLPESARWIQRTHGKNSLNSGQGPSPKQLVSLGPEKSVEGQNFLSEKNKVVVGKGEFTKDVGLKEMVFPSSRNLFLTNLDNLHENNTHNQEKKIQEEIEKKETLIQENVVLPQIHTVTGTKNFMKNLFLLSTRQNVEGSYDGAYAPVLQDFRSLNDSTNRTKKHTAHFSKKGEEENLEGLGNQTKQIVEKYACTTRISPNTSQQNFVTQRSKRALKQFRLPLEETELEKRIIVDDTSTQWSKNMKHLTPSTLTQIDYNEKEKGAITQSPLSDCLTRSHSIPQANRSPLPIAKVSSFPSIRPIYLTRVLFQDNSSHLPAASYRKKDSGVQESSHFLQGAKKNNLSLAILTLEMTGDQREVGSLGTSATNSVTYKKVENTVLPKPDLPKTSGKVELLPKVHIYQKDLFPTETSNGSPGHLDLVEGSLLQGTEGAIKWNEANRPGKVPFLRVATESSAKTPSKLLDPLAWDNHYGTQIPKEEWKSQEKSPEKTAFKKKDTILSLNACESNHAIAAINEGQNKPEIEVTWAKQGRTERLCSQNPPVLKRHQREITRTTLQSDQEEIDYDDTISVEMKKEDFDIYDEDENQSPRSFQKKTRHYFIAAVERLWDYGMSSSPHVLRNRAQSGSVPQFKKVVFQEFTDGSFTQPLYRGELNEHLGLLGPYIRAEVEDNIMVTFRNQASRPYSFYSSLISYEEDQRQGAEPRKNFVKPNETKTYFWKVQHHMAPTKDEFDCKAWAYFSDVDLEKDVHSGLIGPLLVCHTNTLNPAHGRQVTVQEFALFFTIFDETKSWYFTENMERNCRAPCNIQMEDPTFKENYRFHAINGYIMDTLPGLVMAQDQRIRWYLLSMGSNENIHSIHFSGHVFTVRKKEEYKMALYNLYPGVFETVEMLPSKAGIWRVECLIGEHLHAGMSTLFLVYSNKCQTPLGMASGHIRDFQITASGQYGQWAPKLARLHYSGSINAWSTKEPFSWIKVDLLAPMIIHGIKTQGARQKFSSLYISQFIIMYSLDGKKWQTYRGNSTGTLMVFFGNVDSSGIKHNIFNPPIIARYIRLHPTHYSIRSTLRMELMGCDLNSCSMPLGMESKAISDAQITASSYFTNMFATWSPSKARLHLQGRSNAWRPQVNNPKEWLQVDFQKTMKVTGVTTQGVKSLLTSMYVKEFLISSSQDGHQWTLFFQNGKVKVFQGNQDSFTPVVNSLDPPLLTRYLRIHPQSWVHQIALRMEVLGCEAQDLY

For “His-Gln-Tyr-Gly-Tyr-His (HQYGYH; not fully specified; printed as His-Gln-Tyr-Gly-Tyr-His)”, in experiment [1], the “Elute Total μg” value amounted to 10.31 µg, the “Flow-Through Total μg” value turned out to be 0.00 µg and the “Salt Wash Total μg” value was found to be 0.85 µg. In addition, in experiment [2] (inj 2), the “Elute % Recovery” value is on record as 46%, the Purification came to 1.00, the “Elute Total IU” value turned out to be 62 IU and the “Flow-Through Total IU” value came out at 2 IU. Further, in experiment [2] (inj 2), the “Salt Wash Total IU” value came to 3 IU. In experiment [2] (inj 3), the “Elute % Recovery” value was 52%, the Purification was 1.53, the “Elute Total IU” value is 71 IU and the “Flow-Through Total IU” value was determined as 1 IU. Besides, the “Salt Wash Total IU” value in experiment [2] (inj 3) came to 3 IU. In experiment [2] (inj 4), the “Elute % Recovery” value is 55%, the Purification came to 1.47, the “Elute Total IU” value is 75 IU and the “Flow-Through Total IU” value is 1 IU. In addition, in experiment [2] (inj 4), the “Salt Wash Total IU” value came to 3 IU.

Take “His-Ile-Gln-His-Tyr-His (HIQHYH; not fully specified; printed as His-Ile-Gln-His-Tyr-His)”: in experiment [1], the “Elute Total μg” value came out at 7.26 µg, the “Flow-Through Total μg” value amounted to 0.00 µg and the “Salt Wash Total μg” value is 0.74 µg. In experiment [2] (inj 2), the “Elute % Recovery” value was determined as 31%, the Purification stood at 1.22, the “Elute Total IU” value was 42 IU and the “Flow-Through Total IU” value is 1 IU. The “Salt Wash Total IU” value in experiment [2] (inj 2) was 4 IU. Also, in experiment [2] (inj 3), the “Elute % Recovery” value is on record as 38%, the Purification was 1.54, the “Elute Total IU” value came out at 52 IU and the “Flow-Through Total IU” value came out at 1 IU. The “Salt Wash Total IU” value in experiment [2] (inj 3) worked out at 7 IU. Moreover, in experiment [2] (inj 4), the “Elute % Recovery” value was found to be 33%, the Purification came out at 1.48, the “Elute Total IU” value was determined as 45 IU and the “Flow-Through Total IU” value came to 1 IU. Also, the “Salt Wash Total IU” value in experiment [2] (inj 4) came to 9 IU.

Consider “Trp-His-Tyr-Tyr-His-Gly (WHYYHG; not fully specified; printed as Trp-His-Tyr-Tyr-His-Gly)”, for which, in experiment [1], the “Elute Total μg” value came to 5.31 µg, the “Flow-Through Total μg” value came to 0.03 µg and the “Salt Wash Total μg” value is 0.14 µg. Besides, in experiment [2] (inj 2), the “Elute % Recovery” value was determined as 26%, the Purification is given as 1.15, the “Elute Total IU” value is 35 IU and the “Flow-Through Total IU” value was 5 IU. Moreover, in experiment [2] (inj 2), the “Salt Wash Total IU” value was 2 IU. Also, in experiment [2] (inj 3), the “Elute % Recovery” value is recorded as 41%, the Purification is listed as 1.75, the “Elute Total IU” value was determined as 56 IU and the “Flow-Through Total IU” value stood at 2 IU. Besides, the “Salt Wash Total IU” value in experiment [2] (inj 3) was determined as 2 IU. Besides, in experiment [2] (inj 4), the “Elute % Recovery” value is 40%, the Purification is given as 1.64, the “Elute Total IU” value was found to be 54 IU and the “Flow-Through Total IU” value worked out at 6 IU. In addition, the “Salt Wash Total IU” value in experiment [2] (inj 4) came out at 5 IU.
